Measured values: IntAct's records for PubMed 22382979

B1: Proliferating cell nuclear antigen (Saccharomyces cerevisiae), P15873 (parent)
chain: MLEAKFEEASLFKRIIDGFKDCVQLVNFQCKEDGIIAQAVDDSRVLLVSLEIGVEAFQEYRCDHPVTLGMDLTSLSKILRCGNNTDTLTLIADNTPDSIILLFEDTKKDRIAEYSLKLMDIDADFLKIEELQYDSTLSLPSSEFSKIVRDLSQLSDSINIMITKETIKFVADGDIGSGSVIIKPFVDMEHPETSIKLEMDQPVDLTFGAKYLLDIIKGSSLSDRVGIRLSSEAPALFQFDLKSGFLQFFLAPKFNDEE
partner: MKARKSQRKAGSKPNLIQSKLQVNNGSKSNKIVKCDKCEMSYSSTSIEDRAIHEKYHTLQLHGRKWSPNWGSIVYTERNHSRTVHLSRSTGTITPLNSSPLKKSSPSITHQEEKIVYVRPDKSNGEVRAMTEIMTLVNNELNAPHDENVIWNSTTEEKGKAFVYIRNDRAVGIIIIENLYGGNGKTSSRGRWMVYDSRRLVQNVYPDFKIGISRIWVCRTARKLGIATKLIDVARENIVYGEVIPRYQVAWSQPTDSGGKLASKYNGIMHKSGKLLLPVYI
B2: Proliferating cell nuclear antigen (Saccharomyces cerevisiae), P15873 (parent)
chain: B1 chain
B3: ATP-dependent DNA helicase SRS2 (Saccharomyces cerevisiae), P12954 (parent)
chain: MSSNNDLWLHLVSQLNTQQRAAALFDYTRGLQVIAGPGTGKTKVLTSRVAYLILHHHIHPRDIIVTTFTNKAANEMKERLQEMLRGAGVNISELLIGTFHSICLKILYRFGHLVDLQKDWRIIDEKEIDVILDDMIEKVPDQIRDYASSITRKVNLCMPSKNGDEWTIHPKLIKKQISKLKSNAILPEEYILDSNHDAALGYFYQIYQSELSKKNTLDFDDLLMYTFRLLTRVRVLSNIKHVLVDEFQDTNGIQLDLMFLFAKGNHHLSRGMTIVGDPDQSIYAFRNALAHNFLEMGRKCPIEYSTIILVENYRSSQKILNTSEILITQQNKGRQNRAPLRAQFDLDFPPVYMNFPAYFLEAPSLVRELLYLKALPNLFTFNDFAILVRQRRQIKRIESALIEHRIPYKIIRGHSFWDSKETRAMLNLLKLIFSPNDKHAILASLLYPARGLGPATGEKIKNALDTLATDVSCFQILKDISSKKIMLDIPTKGRSVIADFISMIENCQLLLQSTLLGGLSDLFDKLYELSGLKYEYLYKDGKKKNDQLEKSEPNLLNARHKNIELLKNYFLALLSKSESSDKEKNEAIKAATDEAEPIENKVITPKEYLRNFFNSLSLHSDAAEEEESESNKDAKIKREKNGFVTISTIHGAKGLEWPVVFIPGCEEGIIPCVFNDDKKDESEEDEEEDQENSKKDASPKKTRVLSVEDSIDEERRMFFVAQTRAKYLLYLSNTVTVEDVDRPRIASRFLTTDLIKAMSDSQKLFESTNSIKKLYRILNKKPPAEDDKLFSLDQLRKDYNQFIENRRERMIWQGIQMNDVYGIQLSRNKLLGSVSDFTSAADQLRLETQNSIFPQKKLIEKSRPSKINGNYAPKSRVKSPEKRYAPETTSFHSPTKKKVYAPQYVSTTNVPSRQEFHSSTGKNIPFLRREDRSITDISPRSSTRSLKGASPNKTSHMSDDLMRPSPTRKDKVTRNIHFATAGTFRIETQSNVDELHPPEYSNKSGQSLTSSEFSGFSSACSNSDQPTNLIEDINNELDLSDEELLNDISIERRRELLGSKKTKKIKPKTRNRKSKRGDKVKVEEVIDLKSEFEEDDSRNTTAAELLHNPDDTTVDNRPIISNAKFLADAAMKKTQKFSKKVKNEPASSQMDIFSQLSRAKKKSKLNNGEIIVID

Variants of: B1
Conditions: with eco1_yeast ECO1, P43605

Row | effect of a mutation on the interaction | Variant
1 | decreasing interaction | MLEAKFEEASLFKRIIDGFKDCVQLVNFQCKEDGIIAQAVDDSRVLLVSLEIGVEAFQEYRCDHPVTLGMDLTSLSKILRCGNNTDTLTLIADNTPDSIILLFEDTKKDRIAEYSLKLMDIDADAAAAEELQYDSTLSLPSSEFSKIVRDLSQLSDSINIMITKETIKFVADGDIGSGSVIIKPFVDMEHPETSIKLEMDQPVDLTFGAKYLLDIIKGSSLSDRVGIRLSSEAPALFQFDLKSGFLQFFLAPKFNDEE [F125A;L126A;K127A;I128A]

Variants of: B2
Conditions: with srs2_yeast SRS2, P12954

Row | effect of a mutation on the interaction | Variant
2 | decreasing interaction | MLEAKFEEASLFKRIIDGFKDCVQLVNFQCKEDGIIAQAVDDSRVLLVSLEIGVEAFQEYRCDHPVTLGMDLTSLSKILRCGNNTDTLTLIADNTPDSIILLFEDTKKDRIAEYSLKLMDIDADAAAAEELQYDSTLSLPSSEFSKIVRDLSQLSDSINIMITKETIKFVADGDIGSGSVIIKPFVDMEHPETSIKLEMDQPVDLTFGAKYLLDIIKGSSLSDRVGIRLSSEAPALFQFDLKSGFLQFFLAPKFNDEE [F125A;L126A;K127A;I128A]

Variants of: B3
Conditions: with pcna_yeast POL30, P15873

Row | effect of a mutation on the interaction | Variant
3 | decreasing interaction | I1152A;L1156A
4 | decreasing interaction | Q1149E;I1152A
5 | decreasing interaction | I1152A
6 | decreasing interaction | F1153A
7 | decreasing interaction | Q1155E
8 | decreasing interaction | Q1149E
9 | decreasing interaction | D1151A
10 | decreasing interaction | L1156A

Variants of: B3
Conditions: with smt3_yeast SMT3, Q12306
Sequence of smt3_yeast SMT3, Q12306 (Q12306 whole entry): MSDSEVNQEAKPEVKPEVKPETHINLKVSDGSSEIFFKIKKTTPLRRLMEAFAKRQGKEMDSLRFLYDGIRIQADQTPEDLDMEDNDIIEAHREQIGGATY

Row | effect of a mutation on the interaction | Variant
11 | decreasing interaction | I1152A;L1156A
12 | decreasing interaction | Q1149E;I1152A
13 | decreasing interaction | I1152A
14 | decreasing interaction | L1156A
